The source of these data is article PMC3823766, “Paralogs hnRNP L and hnRNP LL Exhibit Overlapping but Distinct RNA Binding Constraints”.

Holding throughout (experiment): EMSA; EMSA: ~1 fmol 32P RNA (0.1 nM), 4.5% native PAGE; binding buffer as in cited ref 9, not given; BC50 values printed only in figures
In data set [1] the target is T1, GST-hnRNP L (UniProt P14866 1-589).
T1 sequence: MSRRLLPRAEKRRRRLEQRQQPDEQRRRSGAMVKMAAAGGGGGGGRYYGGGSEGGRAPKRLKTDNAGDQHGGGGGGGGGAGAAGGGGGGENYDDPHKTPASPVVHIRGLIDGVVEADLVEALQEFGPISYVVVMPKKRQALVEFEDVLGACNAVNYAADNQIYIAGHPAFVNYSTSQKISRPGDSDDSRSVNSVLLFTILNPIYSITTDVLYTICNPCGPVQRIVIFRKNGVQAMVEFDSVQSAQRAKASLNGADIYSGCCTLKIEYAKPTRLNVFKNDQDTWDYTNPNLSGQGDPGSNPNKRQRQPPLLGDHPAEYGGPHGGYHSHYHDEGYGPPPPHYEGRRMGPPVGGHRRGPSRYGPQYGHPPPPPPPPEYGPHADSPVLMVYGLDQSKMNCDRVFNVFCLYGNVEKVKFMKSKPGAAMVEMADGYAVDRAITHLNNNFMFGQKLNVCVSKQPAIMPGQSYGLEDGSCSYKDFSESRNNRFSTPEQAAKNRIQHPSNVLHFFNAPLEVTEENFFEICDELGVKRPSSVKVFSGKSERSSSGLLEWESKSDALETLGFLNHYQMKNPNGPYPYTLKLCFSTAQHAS
Conditions: protein: recombinant; label: 32P-CTP body label.

Data set [2] concerns the target T2, FLAG-hnRNP LL (UniProt Q8WVV9 1-542).
T2 sequence: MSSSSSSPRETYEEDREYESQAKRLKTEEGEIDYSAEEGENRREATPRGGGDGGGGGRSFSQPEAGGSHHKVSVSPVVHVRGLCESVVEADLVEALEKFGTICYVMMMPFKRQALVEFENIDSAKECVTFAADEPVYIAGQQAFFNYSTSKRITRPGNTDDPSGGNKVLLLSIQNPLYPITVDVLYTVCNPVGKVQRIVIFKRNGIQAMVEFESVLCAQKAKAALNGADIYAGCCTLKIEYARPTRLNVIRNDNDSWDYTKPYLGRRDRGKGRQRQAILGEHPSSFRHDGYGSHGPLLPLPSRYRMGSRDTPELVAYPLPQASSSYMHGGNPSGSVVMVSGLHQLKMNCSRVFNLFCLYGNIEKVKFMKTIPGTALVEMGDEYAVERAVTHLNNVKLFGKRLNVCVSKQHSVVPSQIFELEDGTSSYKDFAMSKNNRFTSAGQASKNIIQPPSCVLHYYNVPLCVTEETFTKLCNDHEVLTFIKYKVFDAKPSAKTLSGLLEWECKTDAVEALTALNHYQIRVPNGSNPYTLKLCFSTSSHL
Particulars: protein: recombinant; tags: N-terminal FLAG; label: 32P-CTP body label.

Data set [3] has as its target T2, FLAG-hnRNP LL. Particulars: protein: recombinant; tags: N-terminal FLAG; label: 32P-CTP body label. This is another data set of the same source.
The target in data set [4] is T1, GST-hnRNP L. Conditions: protein: recombinant; label: 32P-CTP body label. The source holds these as a separate data set.
Data set [5] has as its target T1, GST-hnRNP L. Conditions: protein: recombinant; label: 32P-CTP body label. This is another data set of the same source.
The target of data set [6] is T2, FLAG-hnRNP LL. Conditions: protein: recombinant; tags: N-terminal FLAG; label: 32P-CTP body label. This is another data set of the same source.
Data set [7] has as its target T2, FLAG-hnRNP LL. Conditions: protein: recombinant; tags: N-terminal FLAG; label: 32P-CTP body label. The source holds these as a separate data set.

Where only a bound is given, the exact number is not on record here.

B1: ESS1 wild type (ssRNA)
RNA: CUUACCUACUCACACCACUGCAUUCUCACCCGCAAGCACC
The term Kd denotes the concentration at which binding is half-saturated. As for B1, the Kd in data set [1] and in data set [2] was roughly 2 nM in each case.

B2: ESS1 CA7 mutant (CA to TA) (ssRNA)
RNA: CUUACCUACUCACACCACUGCAUUCUCACCCGCAAGUACC
Turning to B2, the binding signal in data set [3] was greater than 5 fold weaker than ESS1. Further, the binding result in data set [1] is on record as “binds”.

B3: ESS1 CA3 mutant (CA to GA) (ssRNA)
RNA: CUUACCUACUCACACGACUGCAUUCUCACCCGCAAGCACC
For B3, the binding signal in data set [4] is roughly 4 fold weaker than ESS1. The binding result in data set [2] is “binds”.

B4: ESS1 CA2 mutant (CA to GA) (ssRNA)
RNA: CUUACCUACUCAGACCACUGCAUUCUCACCCGCAAGCACC
On to B4, for which the binding signal in data set [4] was roughly 2 fold weaker than ESS1. The binding result in data set [2] was “binds”.

B5: ESS1 CA6 mutant (CA to GA) (ssRNA)
RNA: CUUACCUACUCACACCACUGCAUUCUCACCCGGAAGCACC
Consider B5, for which the binding signal is roughly 10 fold weaker than ESS1 in data set [4] and greater than 5 fold weaker than ESS1 in data set [3].

B6: ESS1 CA4 mutant (CA to GA) (ssRNA)
RNA: CUUACCUACUCACACCACUGGAUUCUCACCCGCAAGCACC
As for B6, the binding signal in data set [4] was roughly 2 fold weaker than ESS1. Moreover, the binding result in data set [2] is listed as “binds”.

B7: ESS1 CA5 mutant (CA to GA) (ssRNA)
RNA: CUUACCUACUCACACCACUGCAUUCUGACCCGCAAGCACC
As to B7, in data set [2], the binding result is reported as “binds”.

B8: ESS1 CA1 mutant (CA to TA) (ssRNA)
RNA: CUUACCUACUUACACCACUGCAUUCUCACCCGCAAGCACC
For B8, in data set [2], the binding result is recorded as “binds”.

B9: CACACA x4 (N=2 ca spacer) (ssRNA)
RNA: GAUCCUUCACACAUUAGAUCUUUCACACAUUAGAUCUUUCACACAUUAGAUCUUUCACACAUUAGAUCU
As for B9, the binding result in data set [1] and in data set [2] was “binds” in each case.

B10: CAccCA (ssRNA)
RNA: GAUCCCCCACCCAAGAUCUCCCACCCAAGAUCUCCCACCCAAGAUCUCCCACCCAAGAUCU
For B10, the binding signal in data set [5] came to 15 fold weaker than CACACA; in data set [6], 5 fold weaker than CACACA.

B11: CA spacer N=3 (ssRNA)
RNA: GAUCCUACAUUACAUAGAUCUUACAUUACAUAGAUCUUACAUUACAUAGAUCUUACAUUACAUAGAUCU
B11: in data set [1], the binding result is reported as “binds”.

B12: CAcCA (N=1) (ssRNA)
RNA: GAUCCUCACCACCAUAGAUCUUCACCACCAUAGAUCUUCACCACCAUAGAUCUUCACCACCAUAGAUCU
Regarding B12, the binding signal in data set [7] is > 4 fold weaker than CACACA (at least). The binding result in data set [1] was “binds”.

B13: CAuaCA (N=2) (ssRNA)
RNA: GAUCCUACAUACAUAGAUCUUACAUACAUAGAUCUUACAUACAUAGAUCUUACAUACAUAGAUCU
Turning to B13, the binding result in data set [1] and in data set [2] was “binds” in each case.
